The source of these data is publication PMC10611767, “TudS desulfidases recycle 4-thiouridine-5’-monophosphate at a catalytic [4Fe-4S] cluster” (Communications Biology, 2023).

Holding throughout (assay): purified protein
Common to all, as to conditions: anaerobic, normalized to 4 Fe per protein

For data set [1], the system named is O=c1[nH]c(=S)ccn1[C@@H]1O[C@H](COP(=O)(O)O)[C@@H](O)[C@H]1O.
In data set [2] the test system is O=c1[nH]c(=S)ccn1[C@@H]1O[C@H](COP(=O)(O)OP(=O)(O)OP(=O)(O)O)[C@@H](O)[C@H]1O.
The subject of another data set is O=c1[nH]ccc(=S)[nH]1.
The subject of data set [3] is O=c1[nH]c(=S)ccn1[C@@H]1O[C@H](CO)[C@@H](O)[C@H]1O.
The mark [4] stands for this setting: 100 mM MOPS/KOH pH 7.3, 30 °C, anaerobically purified.
The mark [5] stands for this setting: 100 mM MOPS/KOH pH 7.3, anaerobically purified.

As for TudS_A (uncultured bacterium), in data set [1] (setting [4]), the Km is reported as 0.038 ± 0.013 mM, the Vmax came out at 1000 µmol/min/mg, the kcat was found to be 293 ± 44 s⁻¹ and the kcat/Km was 7.77e+06 M⁻¹ s⁻¹. Besides, in data set [2] (setting [4]), the Km is listed as 0.100 ± 0.023 mM, the Vmax amounted to 234 µmol/min/mg, the kcat was found to be 68.6 ± 3.4 s⁻¹ and the kcat/Km came to 685000 M⁻¹ s⁻¹. For the same substance, in the data set with O=c1[nH]ccc(=S)[nH]1 (setting [4]), the Km is reported as 0.24 ± 0.03 mM, the Vmax is 2.4 µmol/min/mg, the kcat amounted to 0.7 ± 0.05 s⁻¹ and the kcat/Km came out at 2900 M⁻¹ s⁻¹. In addition, in data set [3] (setting [4]), the Km was 3.1 ± 0.6 mM, the Vmax is 30.1 µmol/min/mg, the kcat amounted to 8.8 ± 0.9 s⁻¹ and the kcat/Km stood at 2880 M⁻¹ s⁻¹.

Take TudS_P (Pseudomonas sp. MIL19): in data set [1] (setting [5]), the Km is given as 0.020 ± 0.007 mM, the Vmax worked out at 447 µmol/min/mg, the kcat is 138 ± 16 s⁻¹ and the specificity constant (kcat/Km) is 7.63e+06 M⁻¹ s⁻¹. Further, in data set [2] (setting [5]), the Km turned out to be 0.117 ± 0.026 mM, the Vmax worked out at 168 µmol/min/mg, the kcat turned out to be 52.3 ± 2.4 s⁻¹ and the kcat/Km is 448000 M⁻¹ s⁻¹. Besides, in the data set with O=c1[nH]ccc(=S)[nH]1 (setting [5]), the Km came to 1.49 ± 0.27 mM, the Vmax is 15.9 µmol/min/mg, the kcat came out at 4.93 ± 0.43 s⁻¹ and the kcat/Km was 3270 M⁻¹ s⁻¹. In addition, in data set [3] (setting [5]), the Km is given as 0.2 ± 0.09 mM, the Vmax amounted to 64.3 µmol/min/mg, the kcat was found to be 19.9 ± 4.7 s⁻¹ and the kcat/Km was determined as 103000 M⁻¹ s⁻¹.
